Measurements: patent US20040210041A1 (published 2004)
Positions of bridges follow the written chain, without caps; N, C: chain ends.

Key:
[1] = target: T1, KDR (VEGFR-2), full-length receptor on cells (human, UniProt P35968 20-1356); test: cell-based or functional assay
[2] = target: T1, KDR (VEGFR-2), full-length receptor on …; test: competition with 300 pM 125I-VEGF on KDR-transfected 293H cells; peptide 0.3 µM
Description: (§1) Cells were used 24 h after transfection, and to prepare the cells for the assay, they were washed 3 times with room temperature Ml 99 medium and placed in the refrigerator. […] Each dilution was added to three separate wells of mock and KDR transfected cells. Aflter incubating at 4° C. for 2 h, the plates were washed 5 times with cold binding buffer, gently blotted dry and checked under a microscope for cell loss. 100 μL of solubilizing solution (2% Triton X-100, 10% Glycerol, 0.1% BSA) was added to each well and the plates were incubated at room temperature for 30 minutes. The solubilizing solution in each well was mixed by pipeting up and down, and transferred to 1.2 mL tubes. Each well was washed twice with 100 μL of solubilizing solution and the washes were added to the corresponding 1.2 mL tube.

[3] = target: T1, KDR (VEGFR-2), full-length receptor on …; test: competition with 300 pM 125I-VEGF on KDR-transfected 293H cells; peptide 30 µM
Description: as §1

T1 sequence (P35968 20-1356): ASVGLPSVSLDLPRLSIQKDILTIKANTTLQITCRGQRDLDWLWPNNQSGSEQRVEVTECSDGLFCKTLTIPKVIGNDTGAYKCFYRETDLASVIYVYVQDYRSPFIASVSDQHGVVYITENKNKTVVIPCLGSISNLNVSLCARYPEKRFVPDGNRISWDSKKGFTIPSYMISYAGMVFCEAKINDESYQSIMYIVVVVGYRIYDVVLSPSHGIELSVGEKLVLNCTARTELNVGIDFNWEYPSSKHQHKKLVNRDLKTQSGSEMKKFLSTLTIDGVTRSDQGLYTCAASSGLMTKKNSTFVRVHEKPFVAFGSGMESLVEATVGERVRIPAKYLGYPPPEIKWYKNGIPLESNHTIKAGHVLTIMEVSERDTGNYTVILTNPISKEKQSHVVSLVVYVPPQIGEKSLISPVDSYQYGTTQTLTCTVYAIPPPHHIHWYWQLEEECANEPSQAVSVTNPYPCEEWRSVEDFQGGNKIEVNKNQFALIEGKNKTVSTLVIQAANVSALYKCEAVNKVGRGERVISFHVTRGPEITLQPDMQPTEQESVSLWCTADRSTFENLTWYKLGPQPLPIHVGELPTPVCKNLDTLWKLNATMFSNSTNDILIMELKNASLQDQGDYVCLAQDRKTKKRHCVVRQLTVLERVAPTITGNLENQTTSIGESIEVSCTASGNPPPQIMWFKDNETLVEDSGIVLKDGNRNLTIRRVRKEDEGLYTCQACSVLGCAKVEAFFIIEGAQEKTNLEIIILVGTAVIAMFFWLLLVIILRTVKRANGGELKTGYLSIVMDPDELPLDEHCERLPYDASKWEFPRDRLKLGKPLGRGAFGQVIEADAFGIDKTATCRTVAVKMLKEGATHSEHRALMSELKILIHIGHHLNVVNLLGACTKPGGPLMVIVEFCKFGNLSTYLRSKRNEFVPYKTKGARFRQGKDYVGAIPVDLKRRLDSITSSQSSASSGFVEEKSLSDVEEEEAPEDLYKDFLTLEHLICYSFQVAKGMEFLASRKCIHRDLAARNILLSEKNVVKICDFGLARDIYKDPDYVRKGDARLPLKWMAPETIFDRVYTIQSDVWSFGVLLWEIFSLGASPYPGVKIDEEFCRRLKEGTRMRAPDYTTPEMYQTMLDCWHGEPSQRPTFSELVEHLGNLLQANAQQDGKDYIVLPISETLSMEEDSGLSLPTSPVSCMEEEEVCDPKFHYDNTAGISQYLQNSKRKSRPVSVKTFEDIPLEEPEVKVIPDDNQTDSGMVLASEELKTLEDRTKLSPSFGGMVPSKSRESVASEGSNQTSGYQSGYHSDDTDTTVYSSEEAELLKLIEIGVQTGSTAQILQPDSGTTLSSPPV

inhibition of VEGF-induced KDR phosphorylation [1] [% inhibition at 10 µM]	% inhibition of 125I-labeled VEGF binding [2] [%]	IC50, receptor activation assay [1] [nM]	% inhibition of 125I-labeled VEGF binding [3] [%]	Binder
≥ 50	–	–	–	Ac-AGWIECYHPDGICYHFGTGGGK-NH2 (disulfide 6-13 (inferred)) [P2-D]
≥ 50	52.3	1000	96.3	Ac-GDSRVCWEDSWGGEVCFRYDPGGGK-NH2 (disulfide 6-16 (inferred)) [P6-D]
